{
  "source": "paper PMC9464890",
  "about": "“Exosite binding modulates the specificity of the immunomodulatory enzyme ScpA, a C5a inactivating bacterial protease” (Computational and Structural Biotechnology Journal, 2022)",
  "key": {"ScpA_(S512A)": {"target": "T1, ScpA_(S512A) (Streptococcus pyogenes, UniProt P15926 31-1032, S512A)", "T1 construct": "Plasmid pGEX ScpA(31-1032) was the template; also called C5a peptidase from Streptococcus pyogenes, active site serine to alanine mutant; source: details in Supplemental Information SI1 and SI2", "T1 sequence (looked up)": "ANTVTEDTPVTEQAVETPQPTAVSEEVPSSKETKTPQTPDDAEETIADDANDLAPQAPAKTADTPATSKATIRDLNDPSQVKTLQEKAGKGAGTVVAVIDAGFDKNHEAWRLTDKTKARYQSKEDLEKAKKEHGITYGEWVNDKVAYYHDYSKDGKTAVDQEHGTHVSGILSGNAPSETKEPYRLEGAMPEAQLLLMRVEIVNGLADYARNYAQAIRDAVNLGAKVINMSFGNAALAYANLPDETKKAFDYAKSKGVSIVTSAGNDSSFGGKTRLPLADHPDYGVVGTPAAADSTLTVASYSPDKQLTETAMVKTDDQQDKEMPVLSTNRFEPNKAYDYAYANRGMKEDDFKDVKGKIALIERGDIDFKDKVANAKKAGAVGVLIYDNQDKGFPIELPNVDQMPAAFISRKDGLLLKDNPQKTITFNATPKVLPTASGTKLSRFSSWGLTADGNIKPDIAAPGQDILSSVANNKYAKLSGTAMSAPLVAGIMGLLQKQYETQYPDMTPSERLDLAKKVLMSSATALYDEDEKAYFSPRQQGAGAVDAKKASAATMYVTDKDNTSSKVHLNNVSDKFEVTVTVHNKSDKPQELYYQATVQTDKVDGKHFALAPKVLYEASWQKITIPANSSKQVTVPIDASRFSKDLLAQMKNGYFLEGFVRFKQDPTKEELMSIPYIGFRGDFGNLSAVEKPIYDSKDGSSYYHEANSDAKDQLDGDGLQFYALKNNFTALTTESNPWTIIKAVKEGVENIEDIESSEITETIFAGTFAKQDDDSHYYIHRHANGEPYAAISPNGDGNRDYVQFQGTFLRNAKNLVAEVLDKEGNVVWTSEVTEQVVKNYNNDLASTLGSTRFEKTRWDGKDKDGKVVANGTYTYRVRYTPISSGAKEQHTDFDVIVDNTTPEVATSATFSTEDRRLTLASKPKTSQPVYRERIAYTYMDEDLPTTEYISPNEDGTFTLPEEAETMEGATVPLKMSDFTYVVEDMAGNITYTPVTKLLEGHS", "assay": "SPR; BIAcore X100, NTA sensor chip with about 20-25 RU of immobilised His-tagged C5a form (ligand), ScpA form flowed as ligate at 30 uL/min, 25 °C, 10 mM Hepes-KOH pH 7.4, 150 mM NaCl, 0.005% Tween 20, 50 uM EDTA; global fit, 1:1 Langmuir model with drifting baseline; triplicate", "settings": "both partners purified"}, "ScpA_(S512A,E864A)": {"target": "T2, ScpA_(S512A,E864A) (Streptococcus pyogenes, UniProt P15926 31-1032, S512A | E864A)", "T2 construct": "Made by QuikChange II from pGEX ScpA(31-1032); also called E864A_(S512A); source: details in Supplemental Information SI1 and SI2", "T2 sequence (looked up)": "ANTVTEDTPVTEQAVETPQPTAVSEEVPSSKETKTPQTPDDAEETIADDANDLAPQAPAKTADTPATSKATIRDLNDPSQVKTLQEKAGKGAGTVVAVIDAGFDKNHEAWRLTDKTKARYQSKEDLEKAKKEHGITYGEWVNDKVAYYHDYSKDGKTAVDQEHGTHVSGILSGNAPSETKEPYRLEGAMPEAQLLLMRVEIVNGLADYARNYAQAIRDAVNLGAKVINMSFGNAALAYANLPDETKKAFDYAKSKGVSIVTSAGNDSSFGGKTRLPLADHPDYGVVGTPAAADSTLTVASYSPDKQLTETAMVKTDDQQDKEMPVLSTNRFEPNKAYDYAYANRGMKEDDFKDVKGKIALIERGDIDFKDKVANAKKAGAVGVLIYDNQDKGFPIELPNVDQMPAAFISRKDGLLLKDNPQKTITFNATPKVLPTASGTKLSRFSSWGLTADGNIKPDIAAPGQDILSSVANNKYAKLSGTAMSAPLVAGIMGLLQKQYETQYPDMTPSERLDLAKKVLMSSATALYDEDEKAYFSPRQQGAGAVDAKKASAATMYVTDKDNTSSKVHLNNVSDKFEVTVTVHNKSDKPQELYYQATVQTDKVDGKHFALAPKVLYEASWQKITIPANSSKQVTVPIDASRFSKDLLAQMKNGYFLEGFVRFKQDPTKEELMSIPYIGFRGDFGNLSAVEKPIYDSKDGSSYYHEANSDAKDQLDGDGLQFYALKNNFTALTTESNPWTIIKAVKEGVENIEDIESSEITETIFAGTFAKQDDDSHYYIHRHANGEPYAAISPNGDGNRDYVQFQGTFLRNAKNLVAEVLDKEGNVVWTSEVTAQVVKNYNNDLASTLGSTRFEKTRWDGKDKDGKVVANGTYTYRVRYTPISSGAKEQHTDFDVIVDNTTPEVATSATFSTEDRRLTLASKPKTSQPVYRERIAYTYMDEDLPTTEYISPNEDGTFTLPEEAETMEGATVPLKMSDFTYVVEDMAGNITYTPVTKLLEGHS", "assay": "SPR; BIAcore X100, NTA sensor chip with about 20-25 RU of immobilised His-tagged C5a form (ligand), ScpA form flowed as ligate at 30 uL/min, 25 °C, 10 mM Hepes-KOH pH 7.4, 150 mM NaCl, 0.005% Tween 20, 50 uM EDTA; global fit, 1:1 Langmuir model with drifting baseline; triplicate", "settings": "both partners purified"}},
  "data": [
    {"binder": "Recombinant human C5a (rhC5a) (natural protein, UniProt P01031 678-751, looked up, human complement C5a anaphylatoxin, residues 1-74 (core 1-67 and tail 68-74); also called full length rhC5a; substrate; not shown: His6, N-terminal, kept) TLQKKIEEIAAKYKHSVVKKCCYDGACVNNDETCEQRAARISLGPRCIKAFTECCVVASQLRANISHKDMQLGR", "values": [
      {"measurement": "Kd", "setting": "ScpA_(S512A)", "result": 34, "unit": "nM"},
      {"measurement": "koff", "setting": "ScpA_(S512A)", "result": 0.007, "unit": "s⁻¹"},
      {"measurement": "kon", "setting": "ScpA_(S512A)", "result": 209000, "unit": "M⁻¹ s⁻¹"},
      {"measurement": "Kd", "setting": "ScpA_(S512A,E864A)", "result": 25, "unit": "nM"},
      {"measurement": "koff", "setting": "ScpA_(S512A,E864A)", "result": 0.0064, "unit": "s⁻¹"},
      {"measurement": "kon", "setting": "ScpA_(S512A,E864A)", "result": 260000, "unit": "M⁻¹ s⁻¹"}
    ]}
  ]
}
